# Assay results published in PMC9482650, “Quantitative fragmentomics allow affinity mapping of interactomes” (Nature Communications, 2022).
# Tests used:
# Experiment in all cases: holdup assay
# Parameters in all cases: key: below the threshold = too weak to quantify, mostly under pKd 3.1 to 4
# APBA2_1, Q99767 = molecular target: T1, APBA2_1, Q99767
# T1 sequence (Q99767 563-664, limits assumed, looked up): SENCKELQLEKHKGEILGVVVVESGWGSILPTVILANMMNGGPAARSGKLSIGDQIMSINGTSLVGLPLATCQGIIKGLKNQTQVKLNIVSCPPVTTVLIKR
# PTPN13_1, Q12923 = molecular target: T2, PTPN13_1, Q12923
# T2 sequence (Q12923 1088-1188, limits assumed, looked up): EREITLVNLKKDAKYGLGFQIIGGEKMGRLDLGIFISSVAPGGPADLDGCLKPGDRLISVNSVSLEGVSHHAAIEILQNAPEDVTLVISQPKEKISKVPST
# MPDZ_12, O75970 = molecular target: T3, MPDZ_12, O75970
# T3 sequence (O75970 1857-1958, limits assumed, looked up): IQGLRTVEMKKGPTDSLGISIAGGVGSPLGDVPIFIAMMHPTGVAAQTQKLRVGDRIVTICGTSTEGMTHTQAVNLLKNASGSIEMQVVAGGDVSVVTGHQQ
# MAGI1_2, Q96QZ7 = molecular target: MAGI1_2, Q96QZ7
# Sequence of MAGI1_2, Q96QZ7 (Q96QZ7 456-580): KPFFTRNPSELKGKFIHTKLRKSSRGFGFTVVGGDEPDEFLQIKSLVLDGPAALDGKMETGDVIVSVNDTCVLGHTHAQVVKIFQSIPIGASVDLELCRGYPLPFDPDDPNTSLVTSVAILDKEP
# DLG1_1, Q12959 = molecular target: DLG1_1, Q12959
# DLG1_2, Q12959 = molecular target: DLG1_2, Q12959
# RHPN1, Q8TCX5 = molecular target: T4, RHPN1, Q8TCX5
# T4 sequence (Q8TCX5 508-602, limits assumed, looked up): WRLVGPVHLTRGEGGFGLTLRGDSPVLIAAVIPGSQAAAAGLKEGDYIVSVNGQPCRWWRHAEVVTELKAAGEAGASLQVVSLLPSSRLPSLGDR
# LRRC7, Q96NW7 = molecular target: T5, LRRC7, Q96NW7
# T5 sequence (Q96NW7 1440-1537, limits assumed, looked up): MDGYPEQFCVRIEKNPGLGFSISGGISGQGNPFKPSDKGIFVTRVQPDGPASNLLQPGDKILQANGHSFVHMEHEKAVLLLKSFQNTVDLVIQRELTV
# MAGI2_4, Q86UL8 = molecular target: MAGI2_4, Q86UL8
# Sequence of MAGI2_4, Q86UL8 (Q86UL8 772-865): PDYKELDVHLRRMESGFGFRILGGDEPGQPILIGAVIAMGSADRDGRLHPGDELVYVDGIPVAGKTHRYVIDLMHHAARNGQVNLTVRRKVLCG
# SNTA1, Q13424 = molecular target: T6, SNTA1, Q13424
# T6 sequence (Q13424 82-180, limits assumed, looked up): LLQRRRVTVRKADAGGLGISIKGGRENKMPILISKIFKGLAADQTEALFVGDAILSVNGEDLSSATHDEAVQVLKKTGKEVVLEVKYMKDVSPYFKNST
# NHERF4_4, Q86UT5 = molecular target: NHERF4_4, Q86UT5
# Sequence of NHERF4_4, Q86UT5 (Q86UT5 464-550): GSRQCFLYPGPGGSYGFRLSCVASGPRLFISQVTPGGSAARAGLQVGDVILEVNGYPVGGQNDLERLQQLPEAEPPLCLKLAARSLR
# MPDZ_10, O75970 = molecular target: T7, MPDZ_10, O75970
# T7 sequence (O75970 1624-1722, limits assumed, looked up): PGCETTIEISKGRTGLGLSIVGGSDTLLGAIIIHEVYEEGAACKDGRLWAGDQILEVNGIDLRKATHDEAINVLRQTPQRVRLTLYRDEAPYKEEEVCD
# Inadl_5, Q8NI35 = molecular target: Inadl_5, Q8NI35
# Sequence of Inadl_5, Q8NI35 (Q8NI35 673-780): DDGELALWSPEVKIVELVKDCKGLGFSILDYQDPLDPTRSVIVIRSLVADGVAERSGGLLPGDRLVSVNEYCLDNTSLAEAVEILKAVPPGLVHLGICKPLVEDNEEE
# CASK, O14936 = molecular target: CASK, O14936
# Sequence of CASK, O14936 (O14936 487-570): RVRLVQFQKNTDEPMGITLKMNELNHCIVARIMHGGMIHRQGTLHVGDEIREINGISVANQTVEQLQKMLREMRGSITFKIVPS
# DFNB31_2, Q9P202 = molecular target: T8, DFNB31_2, Q9P202
# T8 sequence (Q9P202 274-371, limits assumed, looked up): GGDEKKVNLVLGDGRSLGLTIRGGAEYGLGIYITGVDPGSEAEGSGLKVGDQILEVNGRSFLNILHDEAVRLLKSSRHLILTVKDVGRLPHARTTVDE
# MAGI2_2, Q86UL8 = molecular target: MAGI2_2, Q86UL8
# Sequence of MAGI2_2, Q86UL8 (Q86UL8 410-522): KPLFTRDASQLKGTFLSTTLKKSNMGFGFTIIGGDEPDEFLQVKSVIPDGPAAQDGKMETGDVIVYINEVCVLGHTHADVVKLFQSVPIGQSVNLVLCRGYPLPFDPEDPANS
# SYNJ2BP, P57105 = molecular target: T9, SYNJ2BP, P57105
# T9 sequence (P57105 8-110, limits assumed, looked up): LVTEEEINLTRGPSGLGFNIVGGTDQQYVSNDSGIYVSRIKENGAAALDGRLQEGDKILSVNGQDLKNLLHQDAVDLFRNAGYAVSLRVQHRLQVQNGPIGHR
# GRIP1_7, Q9Y3R0 = molecular target: T10, GRIP1_7, Q9Y3R0
# T10 sequence (Q9Y3R0 999-1096, limits assumed, looked up): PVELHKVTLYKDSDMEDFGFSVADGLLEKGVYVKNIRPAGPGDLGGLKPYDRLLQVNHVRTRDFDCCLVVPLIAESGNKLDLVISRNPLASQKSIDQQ
# DLG1_3, Q12959 = molecular target: DLG1_3, Q12959
# NHERF3_1, Q5T2W1 = molecular target: T11, NHERF3_1, Q5T2W1
# T11 sequence (Q5T2W1 4-100, limits assumed, looked up): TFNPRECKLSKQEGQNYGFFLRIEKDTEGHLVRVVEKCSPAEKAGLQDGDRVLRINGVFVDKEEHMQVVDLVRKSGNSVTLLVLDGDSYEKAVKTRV
# GRIP2_7, Q9C0E4 = molecular target: GRIP2_7, Q9C0E4
# Sequence of GRIP2_7, Q9C0E4 (Q9C0E4 934-1023): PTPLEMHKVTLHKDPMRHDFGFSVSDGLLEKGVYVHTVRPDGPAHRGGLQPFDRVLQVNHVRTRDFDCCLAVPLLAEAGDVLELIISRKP
# APBA3_1, O96018 = molecular target: T12, APBA3_1, O96018
# T12 sequence (O96018 389-490, limits assumed, looked up): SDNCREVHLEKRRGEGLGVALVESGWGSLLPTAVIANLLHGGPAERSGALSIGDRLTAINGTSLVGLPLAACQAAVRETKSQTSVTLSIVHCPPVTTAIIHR
# LNX1_3, Q8TBB1 = molecular target: LNX1_3, Q8TBB1
# Sequence of LNX1_3, Q8TBB1 (Q8TBB1 500-596): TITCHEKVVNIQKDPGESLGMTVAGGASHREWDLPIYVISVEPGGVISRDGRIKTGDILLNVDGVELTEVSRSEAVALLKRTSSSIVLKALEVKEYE
# TJP3_3, O95049 = molecular target: T13, TJP3_3, O95049
# T13 sequence (O95049 375-456, limits assumed, looked up): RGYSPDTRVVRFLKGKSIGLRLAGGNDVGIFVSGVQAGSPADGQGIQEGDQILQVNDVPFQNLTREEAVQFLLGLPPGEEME
# PDZRN4_1, Q6ZMN7 = molecular target: PDZRN4_1, Q6ZMN7
# Sequence of PDZRN4_1, Q6ZMN7 (Q6ZMN7 213-318): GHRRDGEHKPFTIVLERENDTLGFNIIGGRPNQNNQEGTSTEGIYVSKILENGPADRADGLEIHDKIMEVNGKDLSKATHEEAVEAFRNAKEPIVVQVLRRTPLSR
# [1] = plain residues with an end cap or a label only (N-terminal biotin on a linker: ado-ado)
# [2] = plain residues with an end cap or a label only (N-terminal biotin on a linker: (peg)3)
binder,measurement,setting,value
"EDPRVEVTQF [SLC22A9, Q8IVM8]",pKd,"APBA2_1, Q99767; [1]",below the threshold
same,pKd,"PTPN13_1, Q12923; [1]",below the threshold
same,pKd,"MPDZ_12, O75970; [1]",below the threshold
same,pKd,"MAGI1_2, Q96QZ7; [1]",below the threshold
same,pKd,"DLG1_1, Q12959; [1]",below the threshold
same,pKd,"DLG1_2, Q12959; [1]",below the threshold
same,pKd,"RHPN1, Q8TCX5; [1]",4.4
same,pKd,"LRRC7, Q96NW7; [1]",below the threshold
same,pKd,"MAGI2_4, Q86UL8; [1]",below the threshold
same,pKd,"SNTA1, Q13424; [1]",below the threshold
same,pKd,"NHERF4_4, Q86UT5; [1]",below the threshold
same,pKd,"MPDZ_10, O75970; [1]",below the threshold
same,pKd,"Inadl_5, Q8NI35; [1]",below the threshold
same,pKd,"CASK, O14936; [1]",below the threshold
same,pKd,"DFNB31_2, Q9P202; [1]",below the threshold
same,pKd,"MAGI2_2, Q86UL8; [1]",below the threshold
same,pKd,"SYNJ2BP, P57105; [1]",below the threshold
same,pKd,"GRIP1_7, Q9Y3R0; [1]",below the threshold
same,pKd,"DLG1_3, Q12959; [1]",below the threshold
same,pKd,"NHERF3_1, Q5T2W1; [1]",4.58
same,pKd,"GRIP2_7, Q9C0E4; [1]",below the threshold
same,pKd,"APBA3_1, O96018; [1]",below the threshold
same,pKd,"LNX1_3, Q8TBB1; [1]",below the threshold
same,pKd,"TJP3_3, O95049; [1]",below the threshold
same,pKd,"PDZRN4_1, Q6ZMN7; [1]",below the threshold
"QQSMSSADSTQA [SARS-Cov2-N, P0DTC9]",pKd,"APBA2_1, Q99767; [2]",below the threshold
same,pKd,"PTPN13_1, Q12923; [2]",below the threshold
same,pKd,"MPDZ_12, O75970; [2]",below the threshold
same,pKd,"MAGI1_2, Q96QZ7; [2]",below the threshold
same,pKd,"DLG1_1, Q12959; [2]",below the threshold
same,pKd,"DLG1_2, Q12959; [2]",below the threshold
same,pKd,"RHPN1, Q8TCX5; [2]",below the threshold
same,pKd,"LRRC7, Q96NW7; [2]",below the threshold
same,pKd,"MAGI2_4, Q86UL8; [2]",below the threshold
same,pKd,"SNTA1, Q13424; [2]",below the threshold
same,pKd,"NHERF4_4, Q86UT5; [2]",below the threshold
same,pKd,"MPDZ_10, O75970; [2]",below the threshold
same,pKd,"Inadl_5, Q8NI35; [2]",below the threshold
same,pKd,"CASK, O14936; [2]",below the threshold
same,pKd,"DFNB31_2, Q9P202; [2]",below the threshold
same,pKd,"MAGI2_2, Q86UL8; [2]",below the threshold
same,pKd,"SYNJ2BP, P57105; [2]",below the threshold
same,pKd,"GRIP1_7, Q9Y3R0; [2]",below the threshold
same,pKd,"DLG1_3, Q12959; [2]",below the threshold
same,pKd,"NHERF3_1, Q5T2W1; [2]",below the threshold
same,pKd,"GRIP2_7, Q9C0E4; [2]",below the threshold
same,pKd,"APBA3_1, O96018; [2]",below the threshold
same,pKd,"LNX1_3, Q8TBB1; [2]",below the threshold
same,pKd,"TJP3_3, O95049; [2]",below the threshold
same,pKd,"PDZRN4_1, Q6ZMN7; [2]",below the threshold
"APIAGFSSFV [SDK2, Q58EX2]",pKd,"APBA2_1, Q99767; [1]",below the threshold
same,pKd,"PTPN13_1, Q12923; [1]",below the threshold
same,pKd,"MPDZ_12, O75970; [1]",4.37
same,pKd,"MAGI1_2, Q96QZ7; [1]",below the threshold
same,pKd,"DLG1_1, Q12959; [1]",4.21
same,pKd,"DLG1_2, Q12959; [1]",4.45
same,pKd,"RHPN1, Q8TCX5; [1]",4.76
same,pKd,"LRRC7, Q96NW7; [1]",3.65
same,pKd,"MAGI2_4, Q86UL8; [1]",3.94
same,pKd,"SNTA1, Q13424; [1]",4.09
same,pKd,"NHERF4_4, Q86UT5; [1]",below the threshold
same,pKd,"MPDZ_10, O75970; [1]",below the threshold
same,pKd,"Inadl_5, Q8NI35; [1]",3.82
same,pKd,"CASK, O14936; [1]",below the threshold
same,pKd,"DFNB31_2, Q9P202; [1]",3.52
same,pKd,"MAGI2_2, Q86UL8; [1]",3.5
same,pKd,"SYNJ2BP, P57105; [1]",4.72
same,pKd,"GRIP1_7, Q9Y3R0; [1]",below the threshold
same,pKd,"DLG1_3, Q12959; [1]",below the threshold
same,pKd,"NHERF3_1, Q5T2W1; [1]",5.08
same,pKd,"GRIP2_7, Q9C0E4; [1]",below the threshold
same,pKd,"APBA3_1, O96018; [1]",below the threshold
same,pKd,"LNX1_3, Q8TBB1; [1]",below the threshold
same,pKd,"TJP3_3, O95049; [1]",3.82
same,pKd,"PDZRN4_1, Q6ZMN7; [1]",3.79
"LAHVKHKEQI [AQP3, Q92482]",pKd,"APBA2_1, Q99767; [1]",below the threshold
same,pKd,"PTPN13_1, Q12923; [1]",below the threshold
same,pKd,"MPDZ_12, O75970; [1]",below the threshold
same,pKd,"MAGI1_2, Q96QZ7; [1]",below the threshold
same,pKd,"DLG1_1, Q12959; [1]",below the threshold
same,pKd,"DLG1_2, Q12959; [1]",below the threshold
same,pKd,"RHPN1, Q8TCX5; [1]",below the threshold
same,pKd,"LRRC7, Q96NW7; [1]",below the threshold
same,pKd,"MAGI2_4, Q86UL8; [1]",below the threshold
same,pKd,"SNTA1, Q13424; [1]",below the threshold
same,pKd,"NHERF4_4, Q86UT5; [1]",below the threshold
same,pKd,"MPDZ_10, O75970; [1]",below the threshold
same,pKd,"Inadl_5, Q8NI35; [1]",below the threshold
same,pKd,"CASK, O14936; [1]",below the threshold
same,pKd,"DFNB31_2, Q9P202; [1]",below the threshold
same,pKd,"MAGI2_2, Q86UL8; [1]",below the threshold
same,pKd,"SYNJ2BP, P57105; [1]",below the threshold
same,pKd,"GRIP1_7, Q9Y3R0; [1]",below the threshold
same,pKd,"DLG1_3, Q12959; [1]",below the threshold
same,pKd,"NHERF3_1, Q5T2W1; [1]",below the threshold
same,pKd,"GRIP2_7, Q9C0E4; [1]",below the threshold
same,pKd,"APBA3_1, O96018; [1]",below the threshold
same,pKd,"LNX1_3, Q8TBB1; [1]",below the threshold
same,pKd,"TJP3_3, O95049; [1]",below the threshold
same,pKd,"PDZRN4_1, Q6ZMN7; [1]",below the threshold
